In PMC4655416, “The activity of protein phosphatase 5 towards native clients is modulated by the middle- and C-terminal domains of Hsp90” (Scientific Reports, 2015):
Several values for one entry are separate records, joined by “and”; a condition that tells them apart may be missing. Identical values can stand only once.

Assays:
[1] = molecular target: T1, C. elegans Hsp90 (CeHsp90), full-length (C. elegans, UniProt Q18688 1-702); test: AUC; sedimentation velocity with UV/VIS absorbance optics (OD280); PPH-5 titrated to a constant concentration of CeHsp90 (4 μM) or CeHsp90-MC (3.5 μM); global fit to sequential binding of a first and second PPH-5; conditions: both partners purified
T1 construct: Hsp90/DAF-21 of C. elegans, full-length; also called Hsp90/DAF-21; nematode Hsp90; source: E. coli BL21-CodonPlus(DE3)-RIL, purified (Ni-NTA, Resource Q, gel filtration); not shown: His6, N-terminal, kept

[2] = molecular target: T1, C. elegans Hsp90 (CeHsp90), full-length; test: cell-based or functional assay
[3] = molecular target: T2, CeHsp90-derived MEEVD-containing peptide AEEDASRMEEVD (C. elegans); test: cell-based or functional assay
T2 peptide: AEEDASRMEEVD

B1: protein phosphatase 5 from C. elegans (PPH-5) (enzyme, UniProt Q9NES8 1-496, looked up)
chain: MAATITDDIVATVLESIEEKSYEDEKEKAGMIKDEANQFFKDQVYDVAADLYSVAIEIHPTAVLYGNRAQAYLKKELYGSALEDADNAIAIDPSYVKGFYRRATANMALGRFKKALTDYQAVVKVCPNDKDARAKFDECSKIVRRQKFEAAISTDHDKKTVAETLDINAMAIEDSYDGPRLEDKITKEFVLQLIKTFKNQQKLHKKYAFKMLLEFYNYVKSLPTMVEITVPTGKKFTICGDVHGQFYDLCNIFEINGYPSETNPYLFNGDFVDRGSFSVETIFTMIGFKLLYPNHFFMSRGNHESDVMNKMYGFEGEVKAKYTQQMCDMFTETFCWLPLCHLINEKIFVCHGGLFKEDGVTLEDIRKTDRNRQPPDEGIMCDLLWSDPQPINGRSPSKRGVGCQFGPDVTSKWCETNGIEYVVRSHEVKPEGYEMHHNGQCFTVFSAPNYCDQMNNKGAFITITGDNLTPRFTPFDAVPHPKLPPMAYANSLFGFN
notes: protein phosphatase 5 (PPH-5) of C. elegans; also called the phosphatase; source: E. coli BL21-CodonPlus(DE3)-RIL, purified (Ni-NTA, Resource Q, gel filtration); not shown: His6, N-terminal, kept
[1]
  Kd: ~1 µM and 1 to 3 µM
  stoichiometry N: 2 PPH-5 per CeHsp90 dimer
[2]
  kcat of PPH-5 towards the model peptide KRpTIRR (50 μM) with 3 μM CeHsp90: 0.133 s⁻¹
[3]
  pNPP turnover by PPH-5 in presence of 60 μM peptide …: ~6 fold
